Patent US8173600

Biological target: T1, 2-Quinolinylcarbonyl-L-Valinyl-L-Aspartyl (methyl ester)-L-Valinyl-L-Alanyl-L-Aspartyl (methyl ester) 2,6-difluorophenyl ester
T1 chain: VDVAD

B1: human recombinant caspase-7 (protein)
chain: AKPDRSSFVPSLFSKKKKNVTMRSIKTTRDRVPTYQYNMNFEKLGKCIIINNKNFDKVTGMGVRNGTDKDAEALFKCFRSLGFDVIVYNDCSCAKMQDLLKKASEEDHTNAACFACILLSHGEENVIYGKDGVTPIKDLTAHFRGDRCKTLLEKPKLFFIQACRGTELDDGIQADSGPINDTDANPRYKIPVEADFLFAYSTVPGYYSWRSPGRGSWFVQALCSILEEHGKDLEIMQILTRVNDRVARHFESQSDDPHFHEKKQIPCVVSMLTKELYFSQ
With B1 the “in vitro cleavage of Ac-DEVD-AMC by the recombinant caspase” value was “no cross reactivity against other caspases”.

B2: human recombinant caspase-10 (protein)
chain: VKTFLEALPQESWQNKHAGSNGNRATNGAPSLVSRGMQGASANTLNSETSTKRAAVYRMNRNHRGLCVIVNNHSFTSLKDRQGTHKDAEILSHVFQWLGFTVHIHNNVTKVEMEMVLQKQKCNPAHADGDCFVFCILTHGRFGAVYSSDEALIPIREIMSHFTALQCPRLAEKPKLFFIQACQGEEIQPSVSIEADALNPEQAPTSLQDSIPAEADFLLGLATVPGYVSFRHVEEGSWYIQSLCNHLKKLVPRMLKFLEKTMEIRGRKRTVWGAKQISATSLPTAISAQTPRPPMRRWSSVS
In the case of B2, the “in vitro cleavage of Ac-IETD-AMC by the recombinant caspase” value is reported as “no cross reactivity against other caspases”.

B3: caspase-2 in brain of ischemic rat pups (protein)
chain: GPPCLQVKPCTPEFYQAHYQLAYRLQSQPRGLALVMSNVHFTGEKDLEFRSGGDVDHTTLVTLFKLLGYNVHVLYDQTAQEMQEKLQNFAQLPAHRVTDSCIVALLSHGVEGGIYGVDGKLLQLQEVFRLFDNANCPSLQNKPKMFFIQACRGDETDRGVDQQDGKNHAQSPGCEESDAGKEELMKMRLPTRSDMICGYACLKGNAAMRNTKRGSWYIEALTQVFSERACDMHVADMLVKVNALIKEREGYAPGTEFHRCKEMSEYCSTLCQQLYLFPGYPPT
With B3 the “caspase-2 activity (VDVAD-AMC cleavage) and caspase-2 processing (western blot) in brain homogenates” value was “it inhibited caspase-2 activity as well as caspase-2 processing in brain of ischemic rat pups”.

B4: human recombinant caspase-4 (protein)
chain: QISPNKKAHPNMEAGPPESGESTDALKLCPHEEFLRLCKERAEEIYPIKERNNRTRLALIICNTEFDHLPPRNGADFDITGMKELLEGLDYSVDVEENLTARDMESALRAFATRPEHKSSDSTFLVLMSHGILEGICGTVHDEKKPDVLLYDTIFQIFNNRNCLSLKDKPKVIIVQACRGANRGELWVRDSPASLEVASSQSSENLEEDAVYKTHVEKDFIAFCSSTPHNVSWRDSTMGSIFITQLITCFQKYSWCCHLEEVFRKVQQSFETPRAKAQMPTIERLSMTRYFYLFPGN
For B4, the “in vitro cleavage of Ac-WEHD-AMC by the recombinant caspase” value was “no cross reactivity against other caspases”.

B5: human recombinant caspase-8 (protein)
chain: SESQTLDKVYQMKSKPRGYCLIINNHNFAKAREKVPKLHSIRDRNGTHLDAGALTTTFEELHFEIKPHDDCTVEQIYEILKIYQLMDHSNMDCFICCILSHGDKGIIYGTDGQEAPIYELTSQFTGLKCPSLAGKPKVFFIQACQGDNYQKGIPVETDSEEQPYLEMDLSSPQTRYIPDEADFLLGMATVNNCVSYRNPAEGTWYIQSLCQSLRERCPRGDDILTILTEVNYEVSNKDDKKNMGKQMPQPTFTLRKKLVFPSD
For B5, the “in vitro cleavage of Ac-IETD-AMC by the recombinant caspase” value was “no cross reactivity against other caspases”.

B6: human recombinant caspase-1 (protein)
chain: NPAMPTSSGSEGNVKLCSLEEAQRIWKQKSAEIYPIMDKSSRTRLALIICNEEFDSIPRRTGAEVDITGMTMLLQNLGYSVDVKKNLTASDMTTELEAFAHRPEHKTSDSTFLVFMSHGIREGICGKKHSEQVPDILQLNAIFNMLNTKNCPSLKDKPKVIIIQACRGDSPGVVWFKDSVGVSGNLSLPTTEEFEDDAIKKAHIEKDFIAFCSSTPDNVSWRHPTMGSVFIGRLIEHMQEYACSCDVEEIFRKVRFSFEQPDGRAQMPTTERVTLTRCFYLFPGH
With B6 the “in vitro cleavage of Ac-YVAD-AMC by the recombinant caspase” value was “no cross reactivity against other caspases”.

B7: human recombinant caspase-5 (protein)
chain: DQKITSVKPLLQIEAGPPESAESTNILKLCPREEFLRLCKKNHDEIYPIKKREDRRRLALIICNTKFDHLPARNGAHYDIVGMKRLLQGLGYTVVDEKNLTARDMESVLRAFAARPEHKSSDSTFLVLMSHGILEGICGTAHKKKKPDVLLYDTIFQIFNNRNCLSLKDKPKVIIVQACRGEKHGELWVRDSPASLALISSQSSENLEADSVCKIHEEKDFIAFCSSTPHNVSWRDRTRGSIFITELITCFQKYSCCCHLMEIFRKVQKSFEVPQAKAQMPTIERATLTRDFYLFPGN
With B7 the “in vitro cleavage of Ac-WEHD-AMC by the recombinant caspase” value was “no cross reactivity against other caspases”.

B8: human recombinant caspase-3 (protein)
chain: SGISLDNSYKMDYPEMGLCIIINNKNFHKSTGMTSRSGTDVDAANLRETFRNLKYEVRNKNDLTREEIVELMRDVSKEDHSKRSSFVCVLLSHGEEGIIFGTNGPVDLKKITNFFRGDRCRSLTGKPKLFIIQACRGTELDCGIETDSGVDDDMACHKIPVEADFLYAYSTAPGYYSWRNSKDGSWFIQSLCAMLKQYADKLEFMHILTRVNRKVATEFESFSFDATFHAKKQIPCIVSMLTKELYFYH
With B8 the “in vitro cleavage of Ac-DEVD-AMC by the recombinant caspase” value was “no cross reactivity against other caspases”.

B9: human recombinant caspase-9 (protein)
chain: MDEADRRLLRRCRLRLVEELQVDQLWDALLSRELFRPHMIEDIQRAGSGSRRDQARQLIIDLETRGSQALPLFISCLEDTGQDMLASFLRTNRQAAKLSKPTLENLTPVVLRPEIRKPEVLRPETPRPVDIGSGGFGDVGALESLRGNADLAYILSMEPCGHCLIINNVNFCRESGLRTRTGSNIDCEKLRRRFSSLHFMVEVKGDLTAKKMVLALLELAQQDHGALDCCVVVILSHGCQASHLQFPGAVYGTDGCPVSVEKIVNIFNGTSCPSLGGKPKLFFIQACGGEQKDHGFEVASTSPEDESPGSNPEPDATPFQEGLRTFDQLDAISSLPTPSDIFVSYSTFPGFVSWRDPKSGSWYVETLDDIFEQWAHSEDLQSLLLRVANAVSVKGIYKQMPGCFNFLRKKLFFKTS
For B9, the “in vitro cleavage of Ac-LEHD-AMC by the recombinant caspase” value was “no cross reactivity against other caspases”.

B10: human recombinant caspase-6 (protein)
chain: AFYKREMFDPAEKYKMDHRRRGIALIFNHERFFWHLTLPERRGTCADRDNLTRRFSDLGFEVKCFNDLKAEELLLKIHEVSTVSHADADCFVCVFLSHGEGNHIYAYDAKIEIQTLTGLFKGDKCHSLVGKPKIFIIQACRGNQHDVPVIPLDVVDNQTEKLDTNITEVDAASVYTLPAGADFLMCYSVAEGYYSHRETVNGSWYIQDLCEMLGKYGSSLEFTELLTLVNRKVSQRRVDFCKDPSAIGKKQVPCFASMLTKKLHFFPKSN
In the case of B10, the “in vitro cleavage of Ac-VEID-AMC by the recombinant caspase” value is reported as “no cross reactivity against other caspases”.
